Here are results for one substance from article PMC10085991.

The target of test [1] is β2 adrenergic receptor 148C-378C (min-C-β2AR with N148C and native C378) (human) (UniProt P07550). Briefly: FRET or BRET; single-molecule FRET (TIRF), receptor immobilised by FLAG/M1 Fab; titration of Gs^GDP with 100 μM isoproterenol and 20 μM cmpd-6 (positive allosteric modulator); 25 °C.
The target is the same in test [2]. Briefly: FRET or BRET; single-molecule FRET (TIRF), receptor immobilised by FLAG/M1 Fab; titration of Gs^GDP with 100 μM isoproterenol and 20 μM cmpd-15 (negative allosteric modulator); 25 °C.
For test [3] the target is unchanged. Briefly: FRET or BRET; single-molecule FRET (TIRF) between labels at 148C and 378C of the receptor; receptor immobilised by N-terminal FLAG on biotinylated M1 Fab; Gs^GDP 3.16 nM to 10 μM in solution; 200 μM isoproterenol; 25 °C; 50 mM HEPES pH 7.5, 100 mM NaCl, 5 mM MgCl2, 5 mM CaCl2, 0.01% MNG, 0.001% CHS; apparent EC50 of low-FRET occupancy.

In the case of “Gs heterotrimer (human Gαs, rat Gβ1, bovine Gγ2) (from UniProt P63092 1-394; P54311 1-340; P63212 1-71) (complex)”, the EC50 was 26 nM in test [1], 350 nM in test [2] and 100 nM in test [3]. Moreover, in test [3], the high-FRET dwell time, plateau at high Gs concentration was found to be 2 s.
